Laboratory results taken from patent US12616740B2, “Methods of using a GIP/GLP1 co-agonist for therapy” (ELI LILLY AND COMPANY, priority 2018, dated 2026).

Experiment: NCT03311724: nausea, vomiting and diarrhea, new events per interval
Assay type: in vivo, human
Text: This is a 12-week treatment with a 1 week screening (Visit 1) followed by a 1 week lead-in (Visit 2), then 12 weeks of treatment (Visits 3-10, including telephone visits), then followed by 4-week safety follow-up. It is a Phase 2 study designed to examine the efficacy and tolerability of subcutaneously once-weekly tirzepatide compared with placebo in patients with type 2 diabetes who have inadequate glycemic control with diet and exercise alone or with a stable dose of metformin. The study was designed per below and conducted to refine the escalation scheme.

## tirzepatide [LY]
LY12 mg Group 3 (tirzepatide 4 mg × 4, 8 mg × 4, 12 mg × 4 once weekly), N = 29, Follow-up
  Nausea Vomiting and Diarrhea: m, number of patients who experienced new event during interval: m = 1;
LY12 mg Group 3 (tirzepatide 4 mg × 4, 8 mg × 4, 12 mg × 4 once weekly), N = 29, Overall
  Nausea Vomiting and Diarrhea: m, number of patients who experienced new event during interval: m = 14;
LY12 mg Group 3 (tirzepatide 4 mg × 4, 8 mg × 4, 12 mg × 4 once weekly), N = 29, T/Wk 0
  Nausea Vomiting and Diarrhea: m, number of patients who experienced new event during interval: m = 9;
LY12 mg Group 3 (tirzepatide 4 mg × 4, 8 mg × 4, 12 mg × 4 once weekly), N = 29, T/Wk 1
  Nausea Vomiting and Diarrhea: m, number of patients who experienced new event during interval: m = 5;
LY12 mg Group 3 (tirzepatide 4 mg × 4, 8 mg × 4, 12 mg × 4 once weekly), N = 29, T/Wk 2
  Nausea Vomiting and Diarrhea: m, number of patients who experienced new event during interval: m = 1;
LY12 mg Group 3 (tirzepatide 4 mg × 4, 8 mg × 4, 12 mg × 4 once weekly), N = 29, T/Wk 3
  Nausea Vomiting and Diarrhea: m, number of patients who experienced new event during interval: m = 3;
LY12 mg Group 3 (tirzepatide 4 mg × 4, 8 mg × 4, 12 mg × 4 once weekly), N = 29, T/Wk 4
  Nausea Vomiting and Diarrhea: m, number of patients who experienced new event during interval: m = 3;
LY12 mg Group 3 (tirzepatide 4 mg × 4, 8 mg × 4, 12 mg × 4 once weekly), N = 29, T/Wk 5
  Nausea Vomiting and Diarrhea: m, number of patients who experienced new event during interval: m = 0;
LY12 mg Group 3 (tirzepatide 4 mg × 4, 8 mg × 4, 12 mg × 4 once weekly), N = 29, T/Wk 6
  Nausea Vomiting and Diarrhea: m, number of patients who experienced new event during interval: m = 2;
LY12 mg Group 3 (tirzepatide 4 mg × 4, 8 mg × 4, 12 mg × 4 once weekly), N = 29, T/Wk 7
  Nausea Vomiting and Diarrhea: m, number of patients who experienced new event during interval: m = 1;
LY12 mg Group 3 (tirzepatide 4 mg × 4, 8 mg × 4, 12 mg × 4 once weekly), N = 29, T/Wk 8
  Nausea Vomiting and Diarrhea: m, number of patients who experienced new event during interval: m = 4;
LY12 mg Group 3 (tirzepatide 4 mg × 4, 8 mg × 4, 12 mg × 4 once weekly), N = 29, T/Wk 9
  Nausea Vomiting and Diarrhea: m, number of patients who experienced new event during interval: m = 1;
LY12 mg Group 3 (tirzepatide 4 mg × 4, 8 mg × 4, 12 mg × 4 once weekly), N = 29, T/Wk 10
  Nausea Vomiting and Diarrhea: m, number of patients who experienced new event during interval: m = 1;
LY12 mg Group 3 (tirzepatide 4 mg × 4, 8 mg × 4, 12 mg × 4 once weekly), N = 29, T/Wk 11
  Nausea Vomiting and Diarrhea: m, number of patients who experienced new event during interval: m = 0;
LY12 mg Group 3 (tirzepatide 4 mg × 4, 8 mg × 4, 12 mg × 4 once weekly), N = 29, T/Wk 12
  Nausea Vomiting and Diarrhea: m, number of patients who experienced new event during interval: m = 1;
LY15 mg-Group 1 (tirzepatide 2.5 mg × 2, 5 mg × 2, 10 mg × 4, 15 mg × 4 once weekly), N = 28, Follow-up
  Nausea Vomiting and Diarrhea: m, number of patients who experienced new event during interval: m = 0;
LY15 mg-Group 1 (tirzepatide 2.5 mg × 2, 5 mg × 2, 10 mg × 4, 15 mg × 4 once weekly), N = 28, Overall
  Nausea Vomiting and Diarrhea: m, number of patients who experienced new event during interval: m = 16;
LY15 mg-Group 1 (tirzepatide 2.5 mg × 2, 5 mg × 2, 10 mg × 4, 15 mg × 4 once weekly), N = 28, T/Wk 0
  Nausea Vomiting and Diarrhea: m, number of patients who experienced new event during interval: m = 6;
LY15 mg-Group 1 (tirzepatide 2.5 mg × 2, 5 mg × 2, 10 mg × 4, 15 mg × 4 once weekly), N = 28, T/Wk 1
  Nausea Vomiting and Diarrhea: m, number of patients who experienced new event during interval: m = 3;
LY15 mg-Group 1 (tirzepatide 2.5 mg × 2, 5 mg × 2, 10 mg × 4, 15 mg × 4 once weekly), N = 28, T/Wk 2
  Nausea Vomiting and Diarrhea: m, number of patients who experienced new event during interval: m = 2;
LY15 mg-Group 1 (tirzepatide 2.5 mg × 2, 5 mg × 2, 10 mg × 4, 15 mg × 4 once weekly), N = 28, T/Wk 3
  Nausea Vomiting and Diarrhea: m, number of patients who experienced new event during interval: m = 1;
LY15 mg-Group 1 (tirzepatide 2.5 mg × 2, 5 mg × 2, 10 mg × 4, 15 mg × 4 once weekly), N = 28, T/Wk 4
  Nausea Vomiting and Diarrhea: m, number of patients who experienced new event during interval: m = 5;
LY15 mg-Group 1 (tirzepatide 2.5 mg × 2, 5 mg × 2, 10 mg × 4, 15 mg × 4 once weekly), N = 28, T/Wk 5
  Nausea Vomiting and Diarrhea: m, number of patients who experienced new event during interval: m = 6;
LY15 mg-Group 1 (tirzepatide 2.5 mg × 2, 5 mg × 2, 10 mg × 4, 15 mg × 4 once weekly), N = 28, T/Wk 6
  Nausea Vomiting and Diarrhea: m, number of patients who experienced new event during interval: m = 2;
LY15 mg-Group 1 (tirzepatide 2.5 mg × 2, 5 mg × 2, 10 mg × 4, 15 mg × 4 once weekly), N = 28, T/Wk 7
  Nausea Vomiting and Diarrhea: m, number of patients who experienced new event during interval: m = 0;
LY15 mg-Group 1 (tirzepatide 2.5 mg × 2, 5 mg × 2, 10 mg × 4, 15 mg × 4 once weekly), N = 28, T/Wk 8
  Nausea Vomiting and Diarrhea: m, number of patients who experienced new event during interval: m = 4;
LY15 mg-Group 1 (tirzepatide 2.5 mg × 2, 5 mg × 2, 10 mg × 4, 15 mg × 4 once weekly), N = 28, T/Wk 9
  Nausea Vomiting and Diarrhea: m, number of patients who experienced new event during interval: m = 0;
LY15 mg-Group 1 (tirzepatide 2.5 mg × 2, 5 mg × 2, 10 mg × 4, 15 mg × 4 once weekly), N = 28, T/Wk 10
  Nausea Vomiting and Diarrhea: m, number of patients who experienced new event during interval: m = 3;
LY15 mg-Group 1 (tirzepatide 2.5 mg × 2, 5 mg × 2, 10 mg × 4, 15 mg × 4 once weekly), N = 28, T/Wk 11
  Nausea Vomiting and Diarrhea: m, number of patients who experienced new event during interval: m = 2;
LY15 mg-Group 1 (tirzepatide 2.5 mg × 2, 5 mg × 2, 10 mg × 4, 15 mg × 4 once weekly), N = 28, T/Wk 12
  Nausea Vomiting and Diarrhea: m, number of patients who experienced new event during interval: m = 0;
LY15 mg-Group 2 (tirzepatide 2.5 mg × 4, 7.5 mg × 4, 15 mg × 4 once weekly), N = 28, Follow-up
  Nausea Vomiting and Diarrhea: m, number of patients who experienced new event during interval: m = 0;
LY15 mg-Group 2 (tirzepatide 2.5 mg × 4, 7.5 mg × 4, 15 mg × 4 once weekly), N = 28, Overall
  Nausea Vomiting and Diarrhea: m, number of patients who experienced new event during interval: m = 13;
LY15 mg-Group 2 (tirzepatide 2.5 mg × 4, 7.5 mg × 4, 15 mg × 4 once weekly), N = 28, T/Wk 0
  Nausea Vomiting and Diarrhea: m, number of patients who experienced new event during interval: m = 4;
LY15 mg-Group 2 (tirzepatide 2.5 mg × 4, 7.5 mg × 4, 15 mg × 4 once weekly), N = 28, T/Wk 1
  Nausea Vomiting and Diarrhea: m, number of patients who experienced new event during interval: m = 4;
LY15 mg-Group 2 (tirzepatide 2.5 mg × 4, 7.5 mg × 4, 15 mg × 4 once weekly), N = 28, T/Wk 2
  Nausea Vomiting and Diarrhea: m, number of patients who experienced new event during interval: m = 2;
LY15 mg-Group 2 (tirzepatide 2.5 mg × 4, 7.5 mg × 4, 15 mg × 4 once weekly), N = 28, T/Wk 3
  Nausea Vomiting and Diarrhea: m, number of patients who experienced new event during interval: m = 3;
LY15 mg-Group 2 (tirzepatide 2.5 mg × 4, 7.5 mg × 4, 15 mg × 4 once weekly), N = 28, T/Wk 4
  Nausea Vomiting and Diarrhea: m, number of patients who experienced new event during interval: m = 6;
LY15 mg-Group 2 (tirzepatide 2.5 mg × 4, 7.5 mg × 4, 15 mg × 4 once weekly), N = 28, T/Wk 5
  Nausea Vomiting and Diarrhea: m, number of patients who experienced new event during interval: m = 2;
LY15 mg-Group 2 (tirzepatide 2.5 mg × 4, 7.5 mg × 4, 15 mg × 4 once weekly), N = 28, T/Wk 6
  Nausea Vomiting and Diarrhea: m, number of patients who experienced new event during interval: m = 3;
LY15 mg-Group 2 (tirzepatide 2.5 mg × 4, 7.5 mg × 4, 15 mg × 4 once weekly), N = 28, T/Wk 7
  Nausea Vomiting and Diarrhea: m, number of patients who experienced new event during interval: m = 2;
LY15 mg-Group 2 (tirzepatide 2.5 mg × 4, 7.5 mg × 4, 15 mg × 4 once weekly), N = 28, T/Wk 8
  Nausea Vomiting and Diarrhea: m, number of patients who experienced new event during interval: m = 5;
LY15 mg-Group 2 (tirzepatide 2.5 mg × 4, 7.5 mg × 4, 15 mg × 4 once weekly), N = 28, T/Wk 9
  Nausea Vomiting and Diarrhea: m, number of patients who experienced new event during interval: m = 2;
LY15 mg-Group 2 (tirzepatide 2.5 mg × 4, 7.5 mg × 4, 15 mg × 4 once weekly), N = 28, T/Wk 10
  Nausea Vomiting and Diarrhea: m, number of patients who experienced new event during interval: m = 0;
LY15 mg-Group 2 (tirzepatide 2.5 mg × 4, 7.5 mg × 4, 15 mg × 4 once weekly), N = 28, T/Wk 11
  Nausea Vomiting and Diarrhea: m, number of patients who experienced new event during interval: m = 3;
LY15 mg-Group 2 (tirzepatide 2.5 mg × 4, 7.5 mg × 4, 15 mg × 4 once weekly), N = 28, T/Wk 12
  Nausea Vomiting and Diarrhea: m, number of patients who experienced new event during interval: m = 0;
